Tests used:
Type in all cases: in vivo, rat
Settings in all cases: no phosphatidyl serine, pooled group serum
IgE = experiment: Ovalbumin-specific IgE ELISA of serum of immunised rats
Protocol: (§1) Rats were injected with vaccine compositions comprising the ovalbumin antigen with and without di-oleoyl phosphatidyl serine, lyso-oleoyl phosphatidyl serine or stearoyl(X1)-arachidonoyl(X2) phosphatidyl serine and the concentrations of IgE, IgA and IgG are compared.
(§2) The animals were acclimatised for a period of 5 days prior to dosing. During the acclimatisation period animals were observed twice daily during the working week and once on each day during the weekend to evaluate the health status of the animals. Rats were then allocated to the following dose groups using computer-generated random order numbers.
(§3) On day 0, 20 μg of ovalbumin (OA) in phosphate buffered saline (PBS) with alhydrogel (AHG) adjuvant in a final volume of 0.5 mL was administered.
(§4) On days 21 and 42, 20 μg of ovalbumin (OA) in phosphate buffered saline (PBS) with the relevant test compound in a final volume of 0.5 ml was administered.
(§5) In each case, 0.5 mL of inoculum was injected subcutaneously into the scruff of the neck.
(§6) […] A blood sample was also taken from each animal on Days 15, 22, 29, 36, 43, 50, 57 and 64.
(§7) Serum was prepared by centrifugation of the blood sample at 2,500 rpm for 10 minutes and frozen at −20° C. The samples were then analysed by ELISA to establish the concentration of IgE, IgA and IgG1, IgG2a and IgG2b.
(§8) The purpose of an ELISA is to determine whether a particular protein is present in a sample and then enables quantification of how much is present. By coating the bottom of wells with ovalbumin (OVA) it is possible to bind anti-OVA specific antibodies. To detect only anti-OVA IgA antibodies anti-rat IgA conjugated to HRP was used as a secondary antibody. Quantification of specific antibodies in the rat sera samples was performed using antibody titrations. The data was reported as endpoint titers. Endpoint titers are defined as the last serum dilution giving an optical density value equal to twice the background optical density for the ELISA plate (buffer).

IgA = experiment: Ovalbumin-specific IgA ELISA of serum of immunised rats
Protocol: as §1, §2, §3, §4, §5
On Day 0 a pre-inoculation blood sample was taken. A blood sample was also taken from each animal on Days 15, 22, 29, 36, 43, 50, 57 and 64.
as §7, §8

IgG1 = experiment: Ovalbumin-specific IgG1 ELISA of serum of immunised rats
Protocol: as §1, §2, §3, §4
(§9) In each case, 0.5 mL of inoculum was injected subcutaneously into the scruff of the neck. […]
as §7
as §8, with “To detect only anti-OVA IgA antibodies anti-rat IgA conjugated to HRP was used as a secondary antibody.” left out

IgG2a = experiment: Ovalbumin-specific IgG2a ELISA of serum of immunised rats
Protocol: as §1, §2, §3, §4, §9, §7, §8

IgG2b = experiment: Ovalbumin-specific IgG2b ELISA of serum of immunised rats
Protocol: as §1, §2, §3, §4, §5, §6, §7, §8

B1: ovalbumin (protein, UniProt P01012 2-386, looked up)
Ovalbumin: GSIGAASMEFCFDVFKELKVHHANENIFYCPIAIMSALAMVYLGAKDSTRTQINKVVRFDKLPGFGDSIEAQCGTSVNVHSSLRDILNQITKPNDVYSFSLASRLYAEERYPILPEYLQCVKELYRGGLEPINFQTAADQARELINSWVESQTNGIIRNVLQPSSVDSQTAMVLVNAIVFKGLWEKAFKDEDTQAMPFRVTEQESKPVQMMYQIGLFRVASMASEKMKILELPFASGTMSMLVLLPDEVSGLEQLESIINFEKLTEWTSSNVMEERKIKVYLPRMKMEEKYNLTSVLMAMGITDVFSSSANLSGISSAESLKISQAVHAAHAEINEAGREVVGSAEAGVDAASVSEEFRADHPFLFCIKHIATNAVLFFGRCVSP
notes: Group 2: ovalbumin antigen, 20 μg on days 21 and 42 without phosphatidyl serine, after Ova + Alh on day 0
- IgE endpoint titer (IgE; Day 1): 0
- IgE endpoint titer (IgE; Day 15): 0
- IgE endpoint titer (IgE; Day 22): 0
- IgE endpoint titer (IgE; Day 29): 0
- IgE endpoint titer (IgE; Day 36): 20
- IgE endpoint titer (IgE; Day 43): 20
- IgE endpoint titer (IgE; Day 50): 640
- IgE endpoint titer (IgE; Day 57): 80
- IgE endpoint titer (IgE; Day 64): 40
- IgA endpoint titer (IgA; Day 1): 0
- IgA endpoint titer (IgA; Day 15): 0
- IgA endpoint titer (IgA; Day 22): 0
- IgA endpoint titer (IgA; Day 29): 80
- IgA endpoint titer (IgA; Day 36): 320
- IgA endpoint titer (IgA; Day 43): 320
- IgA endpoint titer (IgA; Day 50): 640
- IgA endpoint titer (IgA; Day 57): 1280
- IgA endpoint titer (IgA; Day 64): 640
- IgG1 endpoint titer (IgG1; Day 1): 0
- IgG1 endpoint titer (IgG1; Day 15): 320
- IgG1 endpoint titer (IgG1; Day 22): 2560
- IgG1 endpoint titer (IgG1; Day 29): 10240
- IgG1 endpoint titer (IgG1; Day 36): 20480
- IgG1 endpoint titer (IgG1; Day 43): 10240
- IgG1 endpoint titer (IgG1; Day 50): 10240
- IgG1 endpoint titer (IgG1; Day 57): 10240
- IgG1 endpoint titer (IgG1; Day 64): 20480
- IgG2a endpoint titer (IgG2a; Day 1): 0
- IgG2a endpoint titer (IgG2a; Day 15): 640
- IgG2a endpoint titer (IgG2a; Day 22): 1280
- IgG2a endpoint titer (IgG2a; Day 29): 1280
- IgG2a endpoint titer (IgG2a; Day 36): 2560
- IgG2a endpoint titer (IgG2a; Day 43): 5120
- IgG2a endpoint titer (IgG2a; Day 50): 20480
- IgG2a endpoint titer (IgG2a; Day 57): 20480
- IgG2a endpoint titer (IgG2a; Day 64): 10240
- IgG2b endpoint titer (IgG2b; Day 1): 0
- IgG2b endpoint titer (IgG2b; Day 15): 1280
- IgG2b endpoint titer (IgG2b; Day 22): 640
- IgG2b endpoint titer (IgG2b; Day 29): 640
- IgG2b endpoint titer (IgG2b; Day 36): 640
- IgG2b endpoint titer (IgG2b; Day 43): 640
- IgG2b endpoint titer (IgG2b; Day 50): 640
- IgG2b endpoint titer (IgG2b; Day 57): 5120
- IgG2b endpoint titer (IgG2b; Day 64): 5120

Source: patent US8765721B2, “Composition comprising phosphatidyl serine and an antigen or allergen and the use thereof” (Vaccine Technology Limited, priority 2004, dated 2014)
